Measurements published in paper PMC5437253.

Tests used:
Assay in all cases: SPR; Biacore 3000; antibodies immobilised on a CM5 chip by amine coupling at ~3000 RU; huFcRn flowed at 5 μl/min for 50 min, 19.5 nM to 10 μM, in PBS pH 5.8 with 5 mM EDTA and 0.05% Tween 20; steady-state fit
K248AzK (human) = target: K248AzK (human)
K248AzK-mPEG (human) = target: K248AzK-mPEG (human)
K288AzK (human) = target: K288AzK (human)
K288AzK-CR110 (human) = target: K288AzK-CR110 (human)
L309AzK (human) = target: L309AzK (human)
L309AzK-CR110 (human) = target: L309AzK-CR110 (human)
L309AzK-mPEG (human) = target: L309AzK-mPEG (human)
M252AzK (human) = target: M252AzK (human)
M252AzK-CR110 (human) = target: M252AzK-CR110 (human)
M252AzK-mPEG (human) = target: M252AzK-mPEG (human)
N286AzK-mPEG (human) = target: N286AzK-mPEG (human)
N384AzK (human) = target: N384AzK (human)
N384AzK-CR110 (human) = target: N384AzK-CR110 (human)
N384AzK-mPEG (human) = target: N384AzK-mPEG (human)
N434AzK (human) = target: N434AzK (human)
Q311AzK (human) = target: Q311AzK (human)
Q311AzK-CR110 (human) = target: Q311AzK-CR110 (human)
Q311AzK-mPEG (human) = target: Q311AzK-mPEG (human)
S254AzK (human) = target: S254AzK (human)
S254AzK-CR110 (human) = target: S254AzK-CR110 (human)
[1] = target: wild-type antibody (human)

Kd (K248AzK (human)): 378 nM | Kd (K248AzK-mPEG (human)): 907 nM | Kd (K288AzK (human)): 418 nM | Kd (K288AzK-CR110 (human)): 558 nM | Kd (L309AzK (human)): 437 nM | Kd (L309AzK-CR110 (human)): 2040 nM | Kd (L309AzK-mPEG (human)): 3270 nM | Kd (M252AzK (human)): 249 nM | Kd (M252AzK-CR110 (human)): 2060 nM | Kd (M252AzK-mPEG (human)): 3580 nM | Kd (N286AzK-mPEG (human)): 2830 nM | Kd (N384AzK (human)): 565 nM | Kd (N384AzK-CR110 (human)): 702 nM | Kd (N384AzK-mPEG (human)): 756 nM | Kd (N434AzK (human)): 734 nM | Kd (Q311AzK (human)): 323 nM | Kd (Q311AzK-CR110 (human)): 2050 nM | Kd (Q311AzK-mPEG (human)): 3870 nM | Kd (S254AzK (human)): 465 nM | Kd (S254AzK-CR110 (human)): 2870 nM | Kd [1]: 538 nM
Substance: Recombinant human FcRn (from UniProt P55899 24-297; P61769 21-119) (receptor)
